Data on two molecules can be found in patent US20210122823A1 (EXCELMAB, published 2021).

Changes are numbered by the printed parent chain. Where only a bound is given, the exact number is not on record here.

Test [1] deals with HER2 on tumor cell lines (SKBR-3, NCI-N87, MCF-7; 293F as HER2-negative control) (human, UniProt P04626 23-1255). Briefly: cell-based or functional assay.
Another test addresses T1, human CD3 antigen (human, UniProt P07766 23-126).
T1 construct: also called antigen CD3
Briefly: ELISA, CD3 antigen coated on plate, anti-human IgG-peroxidase detection. For orientation: In an ELISA, binding on a coated surface is turned into a signal by an enzyme label.

T1 sequence (P07766 23-126): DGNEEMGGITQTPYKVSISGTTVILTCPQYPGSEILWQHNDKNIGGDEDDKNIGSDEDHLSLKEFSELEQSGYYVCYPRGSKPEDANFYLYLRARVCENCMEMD

B1: HER2-OB1×GXP2 bispecific antibody (bispecific antibody, human IgG1, kappa, L234A L235A)
heavy 1: not shown
heavy 2: EVQLVESGGGLVQPGGSLKLSCAASGFTFNTYAMNWVRQAPGKGLEWVARIRSKYNNYATYYADSVKDRFTISRDDSKNTAYLQMNNLKTEDTAMYYCVRHGNFGNSYVSWFAYWGQGTLVTVSSASTKGPSVFPLAPSSKSTSGGTAALGCLVKDYFPEPVTVSWNSGALTSGVHTFPAVLQSSGLYSLSSVVTVPSSSLGTQTYICNVNHKPSNTKVDKKVEPKSCDKTHTCPPCPAPEAAGGPSVFLFPPKPKDTLMISRTPEVTCVVVDVSHEDPEVKFNWYVDGVEVHNAKTKPREEQYNSTYRVVSVLTVLHQDWLNGKEYKCKVSNKALPAPIEKTISKAKGQPREPQVYTLPPSRDELTKNQVSLTCLVKGFYPSDIAVEWESNGQPENNYKTTKKKLDSDGSFFLYSKLTVDKSRWQQGNVFSCSVMHEALHNHYTQKSLSLSPGK
light: DIQMTQEPSLTTSPGGTVTLTCRSSTGAVTTSNYANWVQEKPGQAPRGLIGGTNKRAPGTPARFSGSLIGGKAALTITGVQPEDEAIYFCALWYSNLWVFGGGTKLEIKRTVAAPSVFIFPPSDEQLKSGTASVVCLLNNFYPREAKVQWKVDNALQSGNSQESVTEQDSKDSTYSLSSTLTLSKADYEKHKVYACEVTHQGLSSPVTKSFNRGEC
notes: also called HER2×GXP2; Her2×GXP2
As usually defined, the EC50 is the concentration that produces a half-maximal response. Turning to B1, in test [1], the “EC50 of PBMC-mediated killing of NCI-N87 cells (LDH release)” value turned out to be 0.000395 µg/mL and the “EC50 of PBMC-mediated killing of SKBR-3 cells (LDH release), fold lower than Herceptin” value is > 100 times lower than Herceptin. Besides, in the test with human CD3 antigen, the EC50 is 1.4 µg/mL.

B2: HER2-OB1×GXP bispecific antibody (bispecific antibody)
chain 1: not shown
chain 2: B1 heavy 2 with Q3K, V5L, G15K, K78Q, N79S, T80I, A81L
chain 3: QAVVTQESALTTSPGETVTLTCRSSTGAVTTSNYANWVQEKPDHLFTGLIGGTNKRAPGVPARFSGSLIGDKAALTITGAQTEDEAIYFCALWYSNLWVFGGGTKLVTMEIKRTVAAPSVFIFPPSDEQLKSGTASVVCLLNNFYPREAKVQWKVDNALQSGNSQESVTEQDSKDSTYSLSSTLTLSKADYEKHKVYTCEVTHQGLSSPVTKSFNRGEC
With B2, the EC50 with human CD3 antigen is 3.15 µg/mL.
